Several values for one entry are separate records, joined by “and”; a condition that tells them apart may be missing. Equal values may be shown once. Where no end group is shown, it is not given here.
Key:
[1] = molecular target: the molecule itself; experiment: crystal structure; SUN1 362–401 at 3.5 mg/mL, sitting drops, 20°C; spacegroup P2(1), a SUN1 trimer in the asymmetric unit; 2.07 Å
[2] = molecular target: the molecule itself; experiment: SEC-MALS; MBP-SUN1 α1 at 20 mg/mL and 1 mg/mL after purification, and at 20 mg/mL after over-night incubation with 2 mM zinc acetate (trimer stabilised); Superdex 200 Increase 10/300 GL, 20 mM HEPES pH 7.5, 150 mM KCl, 2 mM DTT; trimer to dimers to monomers
[3] = molecular target: the molecule itself; experiment: SEC-MALS; cleaved SUN1 constructs at > 5 mg/mL; Superdex 200 Increase 10/300 GL, 20 mM HEPES pH 7.5, 150 mM KCl, 2 mM DTT

B1: SUN1 α1 (luminal coiled-coil domain of human SUN1, amino-acids 362–401) (domain or fragment, UniProt O94901 362-401, looked up)
chain: MSGVEQQVASLSGQCHHHGENLRELTTLLQKLQARVDQME
modifications: also: C376 partly oxidised to S-hydroperoxycysteine in crystal chain B, occupancy 0.62
notes: human SUN1, Uniprot O94901, amino-acids 362–401 (α1 coiled-coil domain of the luminal region); Expressed from pMAT11 as a TEV-cleavable His-MBP fusion; tags removed with TEV protease; About one zinc ion per trimer was found in solution; the crystal lacked zinc; also called SUN1 362–401; source: E. coli BL21 (DE3), purified (Ni-NTA, amylose, ion exchange, TEV cleavage, ion exchange, SEC); not …
binding result [1]: binds

B2: MBP-SUN1 α1 (MBP fusion of human SUN1 amino-acids 362–401) (domain or fragment, UniProt O94901 362-401, looked up)
chain: MSGVEQQVASLSGQCHHHGENLRELTTLLQKLQARVDQME
notes: human SUN1, Uniprot O94901, amino-acids 362–401 (α1 coiled-coil domain); The uncleaved His-MBP fusion from pMAT11, used to give greater molecular mass resolution in SEC-MALS; theoretical monomer 49 kDa; The His tag probably stays with the MBP (surmise); source: E. coli BL21 (DE3), purified (Ni-NTA, amylose, ion exchange); not shown: MBP, N-terminal, kept
stoichiometry N [2]: 3 and 2

B3: SUN1 α2 (second luminal coiled-coil domain of human SUN1, amino-acids 421–584) (domain or fragment, UniProt O94901 421-584, looked up)
chain: ETDFMAFHQEHEVRMSHLEDILGKLREKSEAIQKELEQTKQKTISAVGEQLLPTVEHLQLELDQLKSELSSWRHVKTGCETVDAVQERVDVQVREMVKLLFSEDQQGGSLEQLLQRFSSQFVSKGDLQTMLRDLQLQILRNVTHHVSVTKQLPTSEAVVSAVSE
notes: human SUN1, Uniprot O94901, amino-acids 421–584 (α2 coiled-coil domain); Theoretical monomer 19 kDa, so the cleaved protein stood in SEC-MALS; source: E. coli BL21 (DE3), purified (Ni-NTA, amylose, ion exchange, TEV cleavage, ion exchange, SEC); not shown: His, N-terminal, cleaved; MBP, N-terminal, cleaved
stoichiometry N [3]: 3 and 2

B4: SUN1 α1-α2-SUN (entire structured luminal domain of human SUN1, amino-acids 362–785) (domain or fragment, UniProt O94901 362-785, looked up)
chain: MSGVEQQVASLSGQCHHHGENLRELTTLLQKLQARVDQMEGGAAGPSASVRDAVGQPPRETDFMAFHQEHEVRMSHLEDILGKLREKSEAIQKELEQTKQKTISAVGEQLLPTVEHLQLELDQLKSELSSWRHVKTGCETVDAVQERVDVQVREMVKLLFSEDQQGGSLEQLLQRFSSQFVSKGDLQTMLRDLQLQILRNVTHHVSVTKQLPTSEAVVSAVSEAGASGITEAQARAIVNSALKLYSQDKTGMVDFALESGGGSILSTRCSETYETKTALMSLFGIPLWYFSQSPRVVIQPDIYPGNCWAFKGSQGYLVVRLSMMIHPAAFTLEHIPKTLSPTGNISSAPKDFAVYGLENEYQEEGQLLGQFTYDQDGESLQMFQALKRPDDTAFQIVELRIFSNWGHPEYTCLYRFRVHGEPVK
notes: human SUN1, Uniprot O94901, amino-acids 362–785 (α1, α2 and the C-terminal SUN domain); Theoretical trimer 142 kDa; source: E. coli BL21 (DE3), purified (Ni-NTA, amylose, ion exchange, TEV cleavage, ion exchange, SEC); not shown: His, N-terminal, cleaved; MBP, N-terminal, cleaved
stoichiometry N [3]: 3

B5: SUN1 α1-α2 (human SUN1 amino-acids 362–584) (domain or fragment, UniProt O94901 362-584, looked up)
chain: MSGVEQQVASLSGQCHHHGENLRELTTLLQKLQARVDQMEGGAAGPSASVRDAVGQPPRETDFMAFHQEHEVRMSHLEDILGKLREKSEAIQKELEQTKQKTISAVGEQLLPTVEHLQLELDQLKSELSSWRHVKTGCETVDAVQERVDVQVREMVKLLFSEDQQGGSLEQLLQRFSSQFVSKGDLQTMLRDLQLQILRNVTHHVSVTKQLPTSEAVVSAVSE
notes: human SUN1, Uniprot O94901, amino-acids 362–584 (α1 and α2 coiled-coils joined by their natural linker); Theoretical trimer 75 kDa; source: E. coli BL21 (DE3), purified (Ni-NTA, amylose, ion exchange, TEV cleavage, ion exchange, SEC); not shown: His, N-terminal, cleaved; MBP, N-terminal, cleaved
stoichiometry N [3]: 3
